doi:10.1101/2020.06.19.161133, “Structure of the yeast Nup84-Nup133 complex details flexibility and reveals universal conservation of the membrane anchoring ALPS motif” (bioRxiv, 2020)

How the values were obtained:
Conditions in all cases: both partners purified
[1] = target: T1, Nup133 N-terminal domain (Nup133NTD, residues 55-481) (S. cerevisiae, UniProt P36161); test: crystal structure; Nup133NTD-VHH-SAN4, 2.1 Å, molecular replacement; crystals at 18 °C, PEG 3,350, ammonium sulfate, Bis-Tris/HCl pH 5.5
T1 construct: Nup133, S. cerevisiae, N-terminal beta-propeller, residues 55-481; The tag is 3C-cleavable; also called scNup133NTD; WT-Nup133NTD; source: E. coli LOBSTR-RIL(DE3), purified (Ni Sepharose, Superdex 75)
T1 sequence (P36161 55-481): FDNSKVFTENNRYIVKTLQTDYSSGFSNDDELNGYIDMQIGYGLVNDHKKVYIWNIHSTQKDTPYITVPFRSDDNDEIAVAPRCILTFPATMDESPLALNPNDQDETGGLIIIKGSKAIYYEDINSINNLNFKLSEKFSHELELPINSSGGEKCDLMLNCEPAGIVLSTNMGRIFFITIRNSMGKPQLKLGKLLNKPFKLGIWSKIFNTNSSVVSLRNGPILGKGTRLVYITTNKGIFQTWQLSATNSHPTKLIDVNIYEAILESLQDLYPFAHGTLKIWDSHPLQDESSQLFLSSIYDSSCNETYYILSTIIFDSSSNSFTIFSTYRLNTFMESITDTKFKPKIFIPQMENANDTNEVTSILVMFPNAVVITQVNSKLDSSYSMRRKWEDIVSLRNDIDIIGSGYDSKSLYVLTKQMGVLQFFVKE

[2] = target: T2, Nup84 (full-length, S. cerevisiae) (S. cerevisiae, UniProt P52891); test: crystal structure; Nup84-Nup133CTD-VHH-SAN8, 6.4 Å, SAD with a polyoxotungstate derivative; crystals at 18 °C, PEG 8,000, ethylene glycol, imidazole/MES pH 6.5
T2 construct: Nup84, S. cerevisiae, full length; The tag is 3C-cleavable; also called scNup84
T2 sequence (P52891 whole entry): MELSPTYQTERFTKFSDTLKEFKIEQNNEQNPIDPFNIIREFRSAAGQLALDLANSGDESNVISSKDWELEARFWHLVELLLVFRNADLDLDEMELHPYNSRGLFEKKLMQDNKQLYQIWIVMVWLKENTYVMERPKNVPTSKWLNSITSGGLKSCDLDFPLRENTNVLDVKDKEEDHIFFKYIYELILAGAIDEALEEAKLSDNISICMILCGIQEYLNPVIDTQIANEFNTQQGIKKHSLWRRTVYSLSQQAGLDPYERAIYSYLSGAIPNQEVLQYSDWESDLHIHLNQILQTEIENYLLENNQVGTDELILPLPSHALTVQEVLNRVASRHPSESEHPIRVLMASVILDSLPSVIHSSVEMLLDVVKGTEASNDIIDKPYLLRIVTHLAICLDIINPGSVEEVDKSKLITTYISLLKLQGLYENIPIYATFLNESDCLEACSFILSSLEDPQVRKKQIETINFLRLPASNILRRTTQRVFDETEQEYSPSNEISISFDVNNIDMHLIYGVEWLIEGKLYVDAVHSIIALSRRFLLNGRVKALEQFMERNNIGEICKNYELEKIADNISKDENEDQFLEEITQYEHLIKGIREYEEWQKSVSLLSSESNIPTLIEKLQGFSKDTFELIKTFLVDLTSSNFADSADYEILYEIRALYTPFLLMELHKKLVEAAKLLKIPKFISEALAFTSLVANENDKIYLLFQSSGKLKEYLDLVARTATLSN

[3] = target: T3, Nup84-Nup133CTD heterodimeric complex (Saccharomyces cerevisiae (strain ATCC …, UniProt P52891;P36161)); test: as above
T3 construct: Nup84, S. cerevisiae, full length; source: E. coli LOBSTR-RIL(DE3), co-expressed from a bicistronic vector, purified (Ni Sepharose, SP Sepharose, Superdex 200)
T3 sequence (P52891 whole entry, chain 1 of 2): as the sequence (P52891 whole entry) above
T3 sequence (P36161 521-1157, chain 2 of 2): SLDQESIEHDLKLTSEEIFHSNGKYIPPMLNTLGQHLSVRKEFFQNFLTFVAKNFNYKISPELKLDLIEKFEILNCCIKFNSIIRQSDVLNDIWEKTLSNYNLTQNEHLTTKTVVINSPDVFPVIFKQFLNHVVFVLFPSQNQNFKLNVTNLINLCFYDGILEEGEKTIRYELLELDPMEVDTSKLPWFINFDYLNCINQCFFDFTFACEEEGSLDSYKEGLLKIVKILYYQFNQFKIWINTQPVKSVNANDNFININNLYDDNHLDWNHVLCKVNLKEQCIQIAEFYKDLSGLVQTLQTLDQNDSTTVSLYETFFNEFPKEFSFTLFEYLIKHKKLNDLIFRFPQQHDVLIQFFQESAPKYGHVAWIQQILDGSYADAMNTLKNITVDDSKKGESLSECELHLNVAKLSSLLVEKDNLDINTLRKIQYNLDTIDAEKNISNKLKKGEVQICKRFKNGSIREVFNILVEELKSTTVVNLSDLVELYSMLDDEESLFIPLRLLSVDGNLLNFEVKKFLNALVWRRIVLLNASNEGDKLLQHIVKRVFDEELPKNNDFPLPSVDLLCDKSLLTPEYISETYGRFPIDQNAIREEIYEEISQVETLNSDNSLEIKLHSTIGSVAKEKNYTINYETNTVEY

[4] = target: T2, Nup84 (full-length, S. cerevisiae); test: crystal structure; Nup84-Nup133CTD with VHH-SAN8 and VHH-SAN9, 7.4 Å; same crystal form and conditions as the singly bound complex
[5] = target: T3, Nup84-Nup133CTD heterodimeric complex; test: as above
[6] = target: T1, Nup133 N-terminal domain (Nup133NTD, …); test: crystal structure; Nup133NTD-VHH-SAN5, 2.8 Å, molecular replacement; six copies in the asymmetric unit; crystals at 18 °C, PEG MME 2,000, potassium chloride, Tris/HCl pH 8

B1: VHH-SAN4 (VHH)
VHH: QLQLVESGGGSVQAGGSLTLSCTASESISKRIHGIGWFRQRRGEQREEIAYITTGGRPNLGDSVKDRFTISRDKSNGTVYLQMNSLKPEDTAVYYCHGRGRWWGTEGRLDYWGQGTQVTVSS
notes: structure deposited as PDB 6X05 (2.1 Å, nanobody chain); Selected by phage display from an alpaca immunised with the full-length Y complex, panned against Nup133NTD; also called nanobody VHH-SAN4; source: E. coli, purified (Ni Sepharose, tag cut with SEN-p protease, Superdex 75); not shown: 14xHis bdSUMO, N-terminal, cleaved
B1: binds [1].

B2: VHH-SAN8 (VHH)
VHH: QLQLVETGGGLVQAGGSLRLSCVASGRTFTSYAMGWFRQAPGKEREFVAAISRLASGTDYADSVKGRFTISRNNDKNTVYLQMNNLIPEDTAVYYCAALQALRFSLPIAMATMKNGRADSWGQGTQVTVSS
notes: structure deposited as PDB 6X02 and 6X03 (the model is a generic nanobody without CDRs, PDB 1BZQ, placed as a rigid body); Selected by phage display from an alpaca immunised with the full-length Y complex, panned against Nup84; also called VHH8; nanobody VHH-SAN8; source: E. coli, purified (Ni Sepharose, tag cut with SEN-p protease, Superdex 75); not shown: 14xHis bdSUMO, N-terminal, cleaved
B2: binds [2]; binds [3].

B3: VHH-SAN9 (VHH)
VHH: QVQLVESGGGSVQAGGSLRLSCAVSGGTLSTLAMGWFRQAPGQEREFVARIGWTNGDTGYADSVKGRFTISRDNVKNTVYLQMNNLKPEDTALYYCATRRPYGSTLYPPNTESAHDNWGQGTQVTVSS
notes: structure deposited as PDB 6X03 (the model is a nanobody without CDRs placed as a rigid body); Selected by phage display from an alpaca immunised with the full-length Y complex; also called VHH9; nanobody VHH-SAN9; source: E. coli, purified (Ni Sepharose, tag cut with SEN-p protease, Superdex 75); not shown: 14xHis bdSUMO, N-terminal, cleaved
B3: binds [4]; binds [5].

B4: VHH-SAN5 (VHH)
VHH: QVQLVESGGGLVQAGGSLRLSCAASGSIGSLDAMAWYRRAPGKQRERVASISRYGTYYVDSVKGRFTISRDNAKNTVYLQMNSLKPEDTGVYYCKGVMEVGGVIDEYWGQGTQVTVSS
notes: structure deposited as PDB 6X04 (2.8 Å, nanobody chains); Selected by phage display from an alpaca immunised with the full-length Y complex, panned against Nup133NTD; also called nanobody VHH-SAN5; source: E. coli, purified (Ni Sepharose, tag cut with SEN-p protease, Superdex 75); not shown: 14xHis bdSUMO, N-terminal, cleaved
B4: binds [6].
